Measured values as given in paper PMC11574045, “A cofactor-induced repressive type of transcription factor condensation can be induced by synthetic peptides to suppress tumorigenesis” (The EMBO Journal, 2024).

Tested on: HEK293FT cells transfected with TF library
Test: Screening of TF condensates based on fluorescent puncta
Assay type: cell-based
Conditions: Figure 1B numerical data; TF library screen, one value per transcriptional factor
Method: TF plasmids were automatically added to black-walled 384-well plates at 80 ng per well to reach a final concentration of 1.6 μg/ml. Polyethylenimine (PEI, Sigma) was then added to the plasmid-loaded plates at 240 ng per well (4.8 μg/ml). Subsequently, HEK293FT cells were seeded into the plate at 2000 cells per well. After 60 h, cells were cultured in medium with or without glucose for 12 h, and then fixed with 4% paraformaldehyde (PFA) at room temperature for 30 min. After three washes with PBS, fixed cells were permeabilized with 0.05% Triton X-100 for 15 min. Thereafter, cells were blocked with 5% BSA for 1 h, and then incubated overnight with anti-Flag (Sigma F3165, 1:200) and anti-GAL4 (Abbkine ABP57232, 1:200) primary antibodies at 4 °C. The cells were then gently washed with PBS, followed by being incubated with Alexa Fluor Plus 488 goat anti-mouse IgG secondary antibody (Thermo A32723, 1:400) or Alexa Fluor Plus 488 goat anti-rabbit IgG secondary antibody (Thermo A32731, 1:400) for 1 h. The plates were kept at 4 °C in the dark before being analyzed using an Opera System (Perkin Elmer). Fifty random fields per well were scanned and analyzed using the Columbus Plus Image Data Storage and Analysis System (Perkin Elmer).

Row | Molecule | Z score of condensed fraction
1 | DP-1 (protein, UniProt Q14186 1-410, looked up) Transcription factor Dp-1: MAKDAGLIEANGELKVFIDQNLSPGKGVVSLVAVHPSTVNPLGKQLLPKTFGQSNVNIAQQVVIGTPQRPAASNTLVVGSPHTPSTHFASQNQPSDSSPWSAGKRNRKGEKNGKGLRHFSMKVCEKVQRKGTTSYNEVADELVAEFSAADNHILPNESAYDQKNIRRRVYDALNVLMAMNIISKEKKEIKWIGLPTNSAQECQNLEVERQRRLERIKQKQSQLQELILQQIAFKNLVQRNRHAEQQASRPPPPNSVIHLPFIIVNTSKKTVIDCSISNDKFEYLFNFDNTFEIHDDIEVLKRMGMACGLESGSCSAEDLKMARSLVPKALEPYVTEMAQGTVGGVFITTAGSTSNGTRFSASDLTNGADGMLATSSNGSQYSGSRVETPVSYVGEDDEEDDDFNENDEDD | 0.7932
2 | DMRTA1 (protein, UniProt Q5VZB9 1-504, looked up) Doublesex- and mab-3-related …: MERSQCGSRDRGVSGRPHLAPGLVVAAPPPPSPALPVPSGMQVPPAFLRPPSLFLRAAAAAAAAAAATSGSGGCPPAPGLESGVGAVGCGYPRTPKCARCRNHGVVSALKGHKRFCRWRDCACAKCTLIAERQRVMAAQVALRRQQAQEESEARGLQRLLCSGLSWPPGGRASGGGGRAENPQSTGGPAAGAALGLGALRQASGSATPAFEVFQQDYPEEKQEQKESKCESCQNGQEELISKSHQLYLGSSSRSNGVIGKQSIGSSISEYSNKPDSILSPHPGEQSGGEESPRSLSSSDLESGNESEWVKDLTATKASLPTVSSRPRDPLDILTKIFPNYRRSRLEGILRFCKGDVVQAIEQVLNGKEHKPDNRNLANSEELENTAFQRASSFSLAGIGFGTLGNKSAFSPLQTTSASYGGDSSLYGVNPRVGISPLRLAYSSAGRGLSGFMSPYLTPGLVPTLPFRPALDYAFSGMIRDSSYLSSKDSITCGRLYFRPNQDNP | -0.1434
3 | DPRX (protein, UniProt A6NFQ7 1-191, looked up) Divergent paired-related …: MPGSEDLRKGKDQMHSHRKRTMFTKKQLEDLNILFNENPYPNPSLQKEMASKIDIHPTVLQVWFKNHRAKLKKAKCKHIHQKQETPQPPIPEGGVSTSVGLRNADTLPRLPNAAHPIGLVYTGHRVPSFQLILYPNLKVPANDFIGHRIVHFGCCRDPNIYCLYPILESQVCAPSFHSGSPACSSNQSRER | -0.8656
4 | DLX2 (protein, UniProt Q07687 1-328, looked up) Homeobox protein DLX-2: MTGVFDSLVADMHSTQIAASSTYHQHQQPPSGGGAGPGGNSSSSSSLHKPQESPTLPVSTATDSSYYTNQQHPAGGGGGGGSPYAHMGSYQYQASGLNNVPYSAKSSYDLGYTAAYTSYAPYGTSSSPANNEPEKEDLEPEIRIVNGKPKKVRKPRTIYSSFQLAALQRRFQKTQYLALPERAELAASLGLTQTQVKIWFQNRRSKFKKMWKSGEIPSEQHPGASASPPCASPPVSAPASWDFGVPQRMAGGGGPGSGGSGAGSSGSSPSSAASAFLGNYPWYHQTSGSASHLQATAPLLHPTQTPQPHHHHHHHGGGGAPVSAGTIF | 0.04096
5 | DDX17 (protein, UniProt Q92841 1-729, looked up) Probable ATP-dependent RNA …: MPTGFVAPILCVLLPSPTREAATVASATGDSASERESAAPAAAPTAEAPPPSVVTRPEPQALPSPAIRAPLPDLYPFGTMRGGGFGDRDRDRDRGGFGARGGGGLPPKKFGNPGERLRKKKWDLSELPKFEKNFYVEHPEVARLTPYEVDELRRKKEITVRGGDVCPKPVFAFHHANFPQYVMDVLMDQHFTEPTPIQCQGFPLALSGRDMVGIAQTGSGKTLAYLLPAIVHINHQPYLERGDGPICLVLAPTRELAQQVQQVADDYGKCSRLKSTCIYGGAPKGPQIRDLERGVEICIATPGRLIDFLESGKTNLRRCTYLVLDEADRMLDMGFEPQIRKIVDQIRPDRQTLMWSATWPKEVRQLAEDFLRDYTQINVGNLELSANHNILQIVDVCMESEKDHKLIQLMEEIMAEKENKTIIFVETKRRCDDLTRRMRRDGWPAMCIHGDKSQPERDWVLNEFRSGKAPILIATDVASRGLDVEDVKFVINYDYPNSSEDYVHRIGRTARSTNKGTAYTFFTPGNLKQARELIKVLEEANQAINPKLMQLVDHRGGGGGGGGRSRYRTTSSANNPNLMYQDECDRRLRGVKDGGRRDSASYRDRSETDRAGYANGSGYGSPNSAFGAQAGQYTYGQGTYGAAAYGTSSYTAQEYGAGTYGASSTTSTGRSSQSSSQQFSGIGRSGQQPQPLMSQQFAQPPGATNMIGYMGQTAYQYPPPPPPPPPSRK | 0.6597
6 | ACTL6B (protein, UniProt Q99MR0 1-426, looked up) Actin-like protein 6B: MSGGVYGGDEVGALVFDIGSFSVRAGYAGEDCPKADFPTTVGLLAAEEGGGLELEGEKEKKGKIFHIDTNALHVPRDGAEVMSPLKNGMIEDWECFRAILDHTYSKHVKSEPNLHPVLMSEAPWNTRAKREKLTELMFEQYNIPAFFLCKTAVLTAFANGRSTGLVLDSGATHTTAIPVHDGYVLQQGIVKSPLAGDFISMQCRELFQEMAIDIIPPYMIAAKEPVREGAPPNWKKKEKLPQVSKSWHNYMCNEVIQDFQASVLQVSDSPYDEQVAAQMPTVHYEMPNGYNTDYGAERLRIPEGLFDPSNVKGLSGNTMLGVGHVVTTSIGMCDIDIRPGLYGSVIVTGGNTLLQGFTDRLNRELSQKTPPSMRLKLIASNSTMERKFSPWIGGSILASLGTFQQMWISKQEYEEGGKQCVERKCP | 0.5544
7 | DBX2 (protein, UniProt Q6ZNG2 1-339, looked up) Homeobox protein DBX2: MLPSAVAAHAGAYWDVVASSALLNLPAAPGFGNLGKSFLIENLLRVGGAPTPRLQPPAPHDPATALATAGAQLRPLPASPVPLKLCPAAEQVSPAGAPYGTRWAFQVLSPSADSARLPGRAPGDRDCTFQPSAPAPSKPFLLSTPPFYSACCGGSCRRPASSTAFPREESMLPLLTQDSNSKARRGILRRAVFSEDQRKALEKMFQKQKYISKTDRKKLAINLGLKESQVKIWFQNRRMKWRNSKEKEVLSNRCIQEVGLQEDPLSRSALGFPSPCPSIWDVPQQHSSPRWRENSPEPSERLIQESSGAPPPEANSLQGALYLCSEEEAGSKGVLTGAV | 2.182
8 | DDX20 (protein, UniProt Q9UHI6 1-824, looked up) Probable ATP-dependent RNA …: MAAAFEASGALAAVATAMPAEHVAVQVPAPEPTPGPVRILRTAQDLSSPRTRTGDVLLAEPADFESLLLSRPVLEGLRAAGFERPSPVQLKAIPLGRCGLDLIVQAKSGTGKTCVFSTIALDSLVLENLSTQILILAPTREIAVQIHSVITAIGIKMEGLECHVFIGGTPLSQDKTRLKKCHIAVGSPGRIKQLIELDYLNPGSIRLFILDEADKLLEEGSFQEQINWIYSSLPASKQMLAVSATYPEFLANALTKYMRDPTFVRLNSSDPSLIGLKQYYKVVNSYPLAHKVFEEKTQHLQELFSRIPFNQALVFSNLHSRAQHLADILSSKGFPAECISGNMNQNQRLDAMAKLKHFHCRVLISTDLTSRGIDAEKVNLVVNLDVPLDWETYMHRIGRAGRFGTLGLTVTYCCRGEEENMMMRIAQKCNINLLPLPDPIPSGLMEECVDWDVEVKAAVHTYGIASVPNQPLKKQIQKIERTLQIQKAHGDHMASSRNNSVSGLSVKSKNNTKQKLPVKSHSECGIIEKATSPKELGCDRQSEEQMKNSVQTPVENSTNSQHQVKEALPVSLPQIPCLSSFKIHQPYTLTFAELVEDYEHYIKEGLEKPVEIIRHYTGPGDQTVNPQNGFVRNKVIEQRVPVLASSSQSGDSESDSDSYSSRTSSQSKGNKSYLEGSSDNQLKDSESTPVDDRISLEQPPNGSDTPNPEKYQESPGIQMKTRLKEGASQRAKQSRRNLPRRSSFRLQTEAQEDDWYDCHREIRLSFSDTYQDYEEYWRAYYRAWQEYYAAASHSYYWNAQRHPSWMAAYHMNTIYLQEMMHSNQ | 1.184
9 | DMP-1 (protein, UniProt Q9Y222 1-760, looked up) Cyclin-D-binding Myb-like …: MSTVEEDSDTVTVETVNSVTLTQDTEGNLILHCPQNEADEIDSEDSIEPPHKRLCLSSEDDQSIDDSTPCISVVALPLSENDQSFEVTMTATTEVADDEVTEGTVTQIQILQNEQLDEISPLGNEEVSAVSQAWFTTKEDKDSLTNKGHKWKQGMWSKEEIDILMNNIERYLKARGIKDATEIIFEMSKDERKDFYRTIAWGLNRPLFAVYRRVLRMYDDRNHVGKYTPEEIEKLKELRIKHGNDWATIGAALGRSASSVKDRCRLMKDTCNTGKWTEEEEKRLAEVVHELTSTEPGDIVTQGVSWAAVAERVGTRSEKQCRSKWLNYLNWKQSGGTEWTKEDEINLILRIAELDVADENDINWDLLAEGWSSVRSPQWLRSKWWTIKRQIANHKDVSFPVLIKGLKQLHENQKNNPTLLENKSGSGVPNSNTNSSVQHVQIRVARLEDNTAISSSPMAALQIPVQITHVSSADSPATVDSETITLNSGTLQTFEILPSFHLQPTGTPGTYLLQTSSSQGLPLTLTASPTVTLTAAAPASPEQIIVHALSPEHLLNTSDNVTVQCHTPRVIIQTVATEDITSSISQAELTVDSDIQSSDFPEPPDALEADTFPDEIHHPKMTVEPSFNDAHVSKFSDQNSTELMNSVMVRTEEEISDTDLKQEESPSDLASAYVTEGLESPTIEEQVDQTIDDETILIVPSPHGFIQASDVIDTESVLPLTTLTDPILQHHQEESNIIGSSLGSPVSEDSKDVEDLVNCH | 2.192
10 | DDIT3 (protein, UniProt P35638 1-169, looked up) DNA damage-inducible …: MAAESLPFSFGTLSSWELEAWYEDLQEVLSSDENGGTYVSPPGNEEEESKIFTTLDPASLAWLTEEEPEPAEVTSTSQSPHSPDSSQSSLAQEEEEEDQGRTRKRKQSGHSPARAGKQRMKEKEQENERKVAQLAEENERLKQEIERLTREVEATRRALIDRMVNLHQA | -1.245
11 | DLX4 (protein, UniProt Q92988 1-240, looked up) Homeobox protein DLX-4: MTSLPCPLPGRDASKAVFPDLAPVPSVAAAYPLGLSPTTAASPNLSYSRPYGHLLSYPYTEPANPGDSYLSCQQPAALSQPLCGPAEHPQELEADSEKPRLSPEPSERRPQAPAKKLRKPRTIYSSLQLQHLNQRFQHTQYLALPERAQLAAQLGLTQTQVKIWFQNKRSKYKKLLKQNSGGQEGDFPGRTFSVSPCSPPLPSLWDLPKAGTLPTSGYGNSFGAWYQHHSSDVLASPQMM | -0.356
